Results on three compounds are retold here after publication PMC12444563 (ACS Omega, 2025).

SMILES strings stand for the structures. Where two headings read alike, the source gives them in different places. Starred links: 1 amine or outer side, 2 acyl side, 3 side chain; linkers in the order of their positions; H or OH if unused. Non-standard residues stand in square brackets, D forms with d. Residues, ends and D or L forms follow the SMILES beside them. *: point of attachment. Paclitaxel(2'-OCO-DMEDA) = CC(=O)O[C@H]1C(=O)[C@@]2(C)[C@H]([C@H](OC(=O)c3ccccc3)[C@]3(O)C[C@H](OC(=O)[C@H](OC(=O)N(C)CCN(C)*)[C@@H](NC(=O)c4ccccc4)c4ccccc4)C(C)=C1C3(C)C)[C@]1(OC(C)=O)CO[C@@H]1C[C@@H]2O; Fmoc = O=C(OCC1c2ccccc2-c2ccccc21)*; PABC = O=C(OCc1ccc(N[*:1])cc1)[*:2]

Data set [1] can be described thus: Liver S9 fraction stability assay, rat. The class given is in vitro ADME. The note with it: 37 °C; for remaining at 0.5 h, 1 μM / remaining at 1.5 h, 1 μM: male, rat, liver S9 fraction, read-out: S9 stability (matrix: rat) % remaining; for remaining at 0.5 h, 1 μM: 30 min. The method, then:
(§1) The plasma stability assays were performed by Selvita SA (Krakow, Poland) following the protocol described in the Supporting Information. For the use of human plasma, consent was obtained from the subject or from the next of kin.
(§2) 9. Plasma stability assays […]
(§3) Protocol for S9 fraction: a stock solution of compounds 1-4 in DMSO was incubated in human (male, pooled, commercially obtained from Xeno-tech lot: 2310104) and rat (male, pooled, commercially obtained from Xeno-tech (lot: 2210317)) S9 fraction at a final concentration of 1 μM (final concentration of DMSO = 0.5 %). The samples were incubated at 37 °C with a shaking of 450 rpm.
(§4) Aliquots of the samples were analyzed at time 0, 30 and 90 minutes by LC-MS/MS analysis.
(§5) The areas of the peak of the compounds 1-4 in the LC chromatogram were used to evaluate stability profile. The percentage of residual compounds 1-4 was calculated as the ratio between the area of the peak of the analyte and the area of the internal standard.
(§6) % residual compound = Area analyte ∙ 100
(§7) Table S7. LC-MS data of the stability assays in plasma extracts of compound 1.
(§8) Stability assays compound 1
(§9) Time Plasma stability Plasma stability S9 stability S9 stability
(§10) (min.) (matrix: rat) (matrix: human) Time (min.) (matrix: rat) (matrix: human) % remaining % remaining % remaining % remaining
(§11) Table S8. LC-MS data of the stability assays in plasma extracts of compound 2.
(§12) Stability assays compound 2

A short description of data set [2]: Plasma stability assay, rat plasma. The note with it: 37 °C; for remaining at 0.5 h, 1 μM / remaining at 2 h, 1 μM / remaining at 4 h, 1 μM: Sprague Dawley, rat, plasma, read-out: Plasma stability (matrix: rat) % remaining; for remaining at 0.5 h, 1 μM: 30 min; for remaining at 2 h, 1 μM: 120 min. The class given is in vitro ADME, rat (Sprague Dawley). As for the experimental part:
as §1
(§13) 9. Plasma stability assays
(§14) Protocol for full plasma assay: a stock solution of compounds 1-4 in DMSO was incubated in human (Anticoagulants: Na Heparin; Gender: Pooled; Cat. No: IPLANAH100ML; Lot: 37921; Supplier:
(§15) Innovative Research) and rat (Strain: Sprague Dawley; Anticoagulants: Na Heparin; Cat. No:
(§16) IGRTSDPLANAH100ML; Supplier: Innovative Research) plasma at a final concentration of 1 μM (final concentration of DMSO = 1 %). The samples were incubated at 37 °C with a shaking of 450 rpm. Aliquots of the samples were analyzed at time 0, 30 minutes, 2 and 4 hours by LC-MS/MS […]
as §5, §6, §7, §8, §9, §10, §11, §12

Data set [3] is described as follows: Liver S9 fraction stability assay, human. Format: in vitro ADME. The note with it: 37 °C; for remaining at 0.5 h, 1 μM / remaining at 1.5 h, 1 μM: male, human, liver S9 fraction, read-out: S9 stability (matrix: human) % remaining; for remaining at 0.5 h, 1 μM: 30 min. As for the experimental part: as §1, §2, §3, §4, §5, §6, §7, §8, §9, §10, §11, §12
Data set [4] can be described thus: pH stability assay (buffers pH 5.4 and 7.4, UHPLC-HRMS). Format: physicochemical. To be noted: 37 °C, average of two replicates. The method, then:
The pH stability assay was performed by incubating compounds 1–4 at 37 °C in buffers at pH 5.4 and 7.4 under gentle shaking conditions. More specifically, a solution of 20 mM AcONa and 1 mM EDTA in mQ water was used as a pH 5.4 buffer. A solution of PBS tablets in mQ water was used as a pH 7.4 buffer. A 1 mM stock solution of compounds 1–4 in dry DMSO was prepared and a […] solution was then obtained by dilution of 5.85 μL of the stock solution in 44.15 μL of dry DMSO. Then, 6 μL of the […] compound solution was diluted into 135 μL of the desired buffer, and the solution was incubated at 37 °C under gently shaking conditions. Samples aliquots (10 μL) were taken out at 15, 30 min and 1, 2, and 4 h and quenched with 10 μL of acetonitrile. The solutions were then injected in UHPLC-HRMS to monitor the stability of compounds 1–4 under different pH conditions. UHPLC-MS analyses were carried out as previously described for the Cathepsin B cleavage assay. The percentage of the residual compound was calculated as described above.
The stability of compounds 1–4 and of the free drug PTX was evaluated in vitro by UHPLC-Orbitrap analysis incubating the samples at 37 °C in buffer solutions at pH 5.4, to simulate the pH inside the cancer cells, and at physiological pH 7.4. The same buffer of the Cathepsin B cleavage assay was used for the test at pH 5.4. The percentage of residual compounds 1–4 was measured over time by calculating the ratio between the areas of the peak of the full compound at the desired time point and at time zero, and the results were compared with the percentage of residual compounds 1–4 calculated during the Cathepsin B cleavage assay (Tables S6).

The nature of data set [5]: Plasma stability assay, human plasma. Format: in vitro ADME. To be noted: 37 °C; for remaining at 0.5 h, 1 μM / remaining at 2 h, 1 μM / remaining at 4 h, 1 μM: both sexes, human, plasma, read-out: Plasma stability (matrix: human) % remaining; for remaining at 0.5 h, 1 μM: 30 min; for remaining at 2 h, 1 μM: 120 min. As for the experimental part: as §1, §13, §14, §15, §16, §5, §6, §7, §8, §9, §10, §11, §12

Setting [6] is: PBS pH 7.4, pH 7.4 PBS, 30 min, read-out: Stability pH 7.4, % residual compound.
Setting [7] is: acetate/EDTA buffer pH 5.4, pH 5.4 buffer, 120 min, read-out: Stability pH 5.4, % residual compound.
Setting [8] is: acetate/EDTA buffer pH 5.4, pH 5.4 buffer, 240 min (4 h), read-out: Stability pH 5.4, % residual compound.

As for `CC(=O)O[C@H]1C(=O)[C@@]2(C)[C@H]([C@H](OC(=O)c3ccccc3)[C@]3(O)C[C@H](OC(=O)[C@H](OC(=O)N(C)CCN(C)C(=O)OCc4ccc(NC(=O)CNC(=O)[C@H](CC(C)C)NC(=O)[C@H](Cc5ccccc5)NC(=O)CNC(=O)OCC5c6ccccc6-c6ccccc65)cc4)[C@@H](NC(=O)c4ccccc4)c4ccccc4)C(C)=C1C3(C)C)[C@]1(OC(C)=O)CO[C@@H]1C[C@@H]2O` [Compound 2, Fmoc-GFLG-PABC-diamine-PTX] (Fmoc-GFLG[PABC]-{Paclitaxel(2'-OCO-DMEDA)}), the remaining at 0.5 h, 1 μM in data set [1] was found to be 72.8%; in data set [2], 92.1%; in data set [3], 133%; in data set [5], 102%. Besides, the remaining at 1.5 h, 1 μM was determined as 61.8% in data set [1] (90 min (1.5 h)) and 95.2% in data set [3] (90 min (1.5 h)). Further, the remaining at 2 h, 1 μM in data set [2] was 99%; in data set [5], 104%. Besides, the remaining at 4 h, 1 μM in data set [2] (240 min (4 h)) was 103%; in data set [5] (240 min (4 h)), 93.9%. The remaining at 0.5 h, 4.98 µM in data set [4] (setting [6]) was 90.6%. Besides, the remaining at 2 h, 4.98 µM is 90.5% in data set [4] (PBS pH 7.4, pH 7.4 PBS, 120 min, read-out: Stability pH 7.4, % residual compound) and 85.4% in data set [4] (setting [7]). In data set [4] (setting [8]), the remaining at 4 h, 4.98 µM is 86.8%. Further, the “Stability pH 5.4, % residual compound” value in data set [4] (pH 5.4 buffer, 30 min) was found to be 92.49%. Further, the “Stability pH 7.4, % residual compound” value in data set [4] (pH 7.4 PBS, 240 min) turned out to be 91.99%.
Regarding `CC(=O)O[C@H]1C(=O)[C@@]2(C)[C@H]([C@H](OC(=O)c3ccccc3)[C@]3(O)C[C@H](OC(=O)[C@H](OC(=O)N(C)CCN(C)C(=O)OCc4ccc(NC(=O)[C@H](C)NC(=O)[C@@H](NC(=O)OCC5c6ccccc6-c6ccccc65)C(C)C)cc4)[C@@H](NC(=O)c4ccccc4)c4ccccc4)C(C)=C1C3(C)C)[C@]1(OC(C)=O)CO[C@@H]1C[C@@H]2O` [Compound 4, Fmoc-VA-PABC-diamine-PTX], the “S9 stability (matrix: rat) % remaining” value in data set [1] (1 μM, 90 min (1.5 h)) is 81.17%. The remaining at 0.5 h, 1 μM in data set [1] turned out to be 81.1%; in data set [2] it was 96.1%; in data set [3], 107%; in data set [5] it was 101%. Also, the remaining at 1.5 h, 1 μM in data set [1] (90 min (1.5 h)) came out at 81.2%; in data set [3] (90 min (1.5 h)), 79.7%. Moreover, the remaining at 2 h, 1 μM amounted to 104% in data set [2] and 106% in data set [5]. In addition, the figures for the remaining at 4 h, 1 μM in data set [2] (240 min (4 h)) and in data set [5] (240 min (4 h)) were 108% and 107%, respectively. The “S9 stability (matrix: human) % remaining” value in data set [3] (1 μM, 90 min (1.5 h)) came out at 79.75%. Also, the remaining at 0.5 h, 4.98 µM in data set [4] (setting [6]) was 94.7%; in data set [4] (acetate/EDTA buffer pH 5.4, pH 5.4 buffer, 30 min, read-out: Stability pH 5.4, % residual compound), 90.8%. Further, the remaining at 2 h, 4.98 µM in data set [4] (setting [7]) is 52.5%. In data set [4] (setting [8]), the remaining at 4 h, 4.98 µM amounted to 47.5%. Besides, the “Stability pH 5.4, % residual compound” value in data set [4] (pH 5.4 buffer, 240 min (4 h)) is 47.4%. In addition, the “Stability pH 7.4, % residual compound” value in data set [4] (pH 7.4 PBS, 120 min) came to 96.21%; in data set [4] (pH 7.4 PBS, 240 min), 95.00%.
`CC(=O)O[C@H]1C(=O)[C@@]2(C)[C@H]([C@H](OC(=O)c3ccccc3)[C@]3(O)C[C@H](OC(=O)[C@H](OC(=O)N(C)CCN(C)C(=O)OCc4ccc(NC(=O)CNC(=O)[C@H](CC(C)C)NC(=O)[C@@H]5CCCN5C(=O)CNC(=O)OCC5c6ccccc6-c6ccccc65)cc4)[C@@H](NC(=O)c4ccccc4)c4ccccc4)C(C)=C1C3(C)C)[C@]1(OC(C)=O)CO[C@@H]1C[C@@H]2O` [Compound 1, Fmoc-GPLG-PABC-diamine-PTX] (Fmoc-GPLG[PABC]-{Paclitaxel(2'-OCO-DMEDA)}): the remaining at 0.5 h, 1 μM in data set [1] was found to be 88.8%; in data set [2] it was 98.1%; in data set [3], 104%; in data set [5] it was 98.9%. Besides, the remaining at 1.5 h, 1 μM is 94.5% in data set [1] (90 min (1.5 h)) and 95% in data set [3] (90 min (1.5 h)). For the same compound, the “Plasma stability (matrix: rat) % remaining” value in data set [2] (1 μM, 240 min (4 h)) amounted to 100%. Also, the figures for the remaining at 2 h, 1 μM in data set [2] and in data set [5] were 111% and 117%, respectively. In addition, the remaining at 4 h, 1 μM worked out at 103% in data set [2] (240 min (4 h)) and 112% in data set [5] (240 min (4 h)). Further, the remaining at 0.5 h, 4.98 µM in data set [4] (setting [6]) is 115%. For the same compound, the “Stability pH 5.4, % residual compound” value in data set [4] (pH 5.4 buffer, 30 min) is recorded as 93.60%; in data set [4] (pH 5.4 buffer, 120 min), 93.87%; in data set [4] (pH 5.4 buffer, 240 min (4 h)), 93.78%. For the same compound, the “Stability pH 7.4, % residual compound” value in data set [4] (pH 7.4 PBS, 120 min) stood at 97.00%; in data set [4] (pH 7.4 PBS, 240 min), 113.04%. The “Plasma stability (matrix: human) % remaining” value in data set [5] (1 μM, 240 min (4 h)) is 100%.
